In article doi:10.1101/2025.07.28.667101:

Target: poly-C3-GFOGMR (disulfide-linked polymer of the triple-helical peptide C3-GFOGMR)
Assay: ELISA

- affinity relative to the T221A mutant: 0.0033 fold
Substance: GST-α2I domain E318W mutant (from UniProt P17301 169-366) (domain or fragment)
